Test results reported in publication PMC6598382.

Tests used:
[1] = substrate: C/C=C/C=C/C(=O)c1cc(C)c(O)c(C)c1O; experiment: steady-state Michaelis-Menten kinetics; assay type: biochemical, Penicillium rubens; details: native substrate
[2] = substrate: C/C=C/COC(=O)c1cc(C)c(O)c(C)c1O; experiment: steady-state Michaelis-Menten kinetics; assay type: biochemical, Penicillium rubens

B1: SorbC (Penicillium rubens Wisconsin 54-1255) (protein)
chain: MTRSANSPFEVAIVGGGITGLALAVGLLKRNVSFTIYERAENFGELGVGITFTPNAQRAMEALDPCVLQSFTNVASAPSGGTINFVDGVREQGSEDPRTSTAALLFQLHVKGGYKACRRCDFVDQIVQHIPKDCVQYRKWLDSIETDHESGRAVLKFRDGEIAHADVVIGCDGIRSQVRASMFGTDELCPRAQYSHQLGYRGMVPLAQATAVLGPEKTSSAVLHTGPGAFVLTIPLAEVHAMHIEAFIMDKEEWPEVQTSSDSKRYVLPATRNEATKAFAEFGPTVRSAVSMFPEKLEKWAVFDMLEAPVPTFAKGRVCLAGDAAHASTPNQGGGAGFGIEDALVLAEVLAVLAEAPNVSGIVASEALAVYSEVRYERSQWLVRSSRRTGELCTWKDRDWGLAAEELSRDIISRSHQLWDHDTAGMVSDALAILGERVRGADTAF
In the case of B1, the Km [1] is reported as 38.6 ± 1.7 µM and the Km [2] is reported as 17.3 ± 0.7 µM.
